We go through two molecules from US8692070B2, “Plants with improved nitrogen utilization and stress tolerance” (Iowa Corn Promotion Board, priority 2009, dated 2014).

Common to all, as to type: biochemical, Brevibacillus laterosporus
Assay [1] deals with NAGK enzyme. The assay can be described thus: NAGK enzyme assay, titration with arginine. The conditions noted are these: NAGK 100 ng/mL; for A540 nm: 70 mM NAG, 30 minutes 37° C., no-arginine control 0.284. Here is the method:
(§1) The NAGK enzyme assay was adapted from the method of Denes (1970). Product formation was quantified using a Spectramax 190 spectrophotometer at 540 nm.
The following master mix for NAGK in vitro enzyme assays was prepared for the purpose of determining the effect of arginine on NAGK enzyme activity: 50 mM Tris; final pH was 5.5;100 mM hydroxylamine (NH2OH); 10 mM MgCl2; 7 mM ATP; 70 mM NAG.
This master mix was subdivided into individual wells in a 96-well plate (200 uL/well final volume), and then varying concentrations of arginine (0.15 mM to 10 mM) were then added to individual wells. The enzyme reactions were then initiated by addition of NAGK enzyme (100 ng/mL). Following 30 minutes of incubation at 37° C., the absorbance of each sample was quantified. A control reaction without arginine was prepared an analyzed alongside.

Assay [2] deals with NAGK enzyme. The assay can be described thus: NAGK enzyme assay, titration with substrate (NAG). The conditions noted are these: 1000 ng/mL NAGK, 1 hour 37° C., no-substrate control (0.041) subtracted. Here is the method: as §1
The following master mix for NAGK in vitro enzyme assays was prepared for the purpose of titrating the substrate (NAG) into the reaction: 50 mM Tris; final pH was 5.5; 100 mM hydroxylamine (NH2OH); 10 mM MgCl2; 7 mM ATP; 1000 ng/mL NAGK enzyme (from protein extract).
This master mix was subdivided into individual wells in a 96-well plate (200 uL/well final volume), and reactions were then initiated by adding various concentrations of the substrate NAG into individual sample wells. The NAG concentrations ranged from 1.6 mM up to 100 mM. Following 1 hour of incubation at 37° C., the absorbance of each sample was quantified. A control reaction without substrate was prepared an analyzed alongside.

In assay [3] the test system is NAGK enzyme. The assay can be described thus: NAGK enzyme assay, titration with NAGK enzyme. The conditions noted are these: 70 mM NAG, 1 hour 37° C.; for A540 nm: buffer control (0.040) subtracted. Here is the method:
NAGK overexpression vector pAX4389 was transformed into electrocompetent E. coli cells (BL21 *DE3, Invitrogen) and single colonies were obtained by selection on the antibiotic kanamycin. An individual colony was then grown in liquid medium (LB broth) until the culture absorbance (at 600 nm) reached 0.6, and then 0.5 mM IPTG was added to induce expression from the T7 promoter. Induction was carried out overnight at 16° C. The following day, the induced culture was centrifuged and the pellet was frozen for two hours at −20° C. After thawing on ice, the pellet was resuspended in […] of lysis buffer (50 mM Hepes, pH 7.0, 50 mM NaCl), treated with Lysozyme (Novagen) at room temperature for 30 minutes, and then sonicated to lyse the cells. Insoluble material was separated from the soluble protein extract through centrifugation. This protein extract was then stored in an ice bucket, and NAGK enzyme assays were prepared a short time later. As a negative control, a control vector was prepared alongside that directed the overexpression of a bacterial EPSPS enzyme in the same base vector (pRSF-1b). This vector was likewise transformed into the same E. coli cell line and a transformant colony was selected for protein overexpression and a protein extract was prepared alongside NAGK.
as §1
A master mix for the NAGK in vitro reaction was prepared with the following components: 50 mM Tris, pH 8.0; final pH of the master mix was 5.5; 100 mM hydroxylamine (NH2OH); 10 mM MgCl2; 7 mM ATP; 70 mM N-acetylglutamate (NAG).
This master mix was subdivided into individual wells in a 96-well plate (200 uL/well final volume), and reactions were then initiated by adding various concentrations of NAGK protein extract into individual sample wells. Following 1 hour of incubation at 37° C., the absorbance of each sample was quantified. The quantity of NAGK protein in the extract was estimated by loading dilutions of the extract on a SDS-polyacrylamide gel alongside known concentrations of a bovine serum albumin standard, and then staining the gel with Coomassie protein stain (Simply Blue, Invitrogen).
By this method, it was observed that addition of NAGK protein extract at concentrations as low as 1 ng/mL generated an absorbance product at 540 nm. The absorbance results from the enzyme product (N-actylglutamyl-5-phosphate) reacting with hydroxylamine to create the absorbent compound N-acetyglutamyl-5-hydroxamate. The graph (FIG. 1) and table (Table 3) show the absorbance at each of 6 different concentrations of NAGK protein. The baseline absorbance generated by a buffer control (A540=0.04) was subtracted from each NAGK absorbance value.

As to `N=C(N)NCCC[C@H](N)C(=O)O` [Arginine, arginine], the A540 nm in assay [1] (Arginine 0.16 mM) is on record as 0.291; in assay [1] (Arginine 0.31 mM) it was 0.259; in assay [1] (Arginine 0.63 mM), 0.263; in assay [1] (Arginine 1.25 mM), 0.237; in assay [1] (Arginine 2.5 mM), 0.257; in assay [1] (Arginine 5 mM) it was 0.266. The same molecule gave an A540 nm in assay [1] (Arginine 10 mM) of 0.287. In assay [1] (arginine 0.15 mM to 10 mM), the “effect of arginine on product formation by the NAGK enzyme” value is listed as “insensitive”.

B1: NAGK: arginine-insensitive N-acetyl glutamate kinase (SEQ ID NO:2) from Brevibacillus laterosporus, 6-histidine tagged, E. coli protein extract (protein)
chain: MLHEVMVIKCGGSMLEQLPESFYNKLATLQAEGRSIVIVHGGGPAINQMLEQLKIEPTFSNGLRVTDEPTMQAVEMVLSGPINKLVVRKLLHAGGKAWGLSGVDGSLLQAVEKTQGLGLVGSITVVDQAPLQLLLSNGYIPVVSPIAVSEDGRTRYNCNADTVAGAIASALGAKQLLMLTDVPGIWAENELGEKQLLPTVTTEDIQLMMKNQIITGGMIPKVQAALDALAQGVQEVVICKGEAETLDGVVKGMAVGTSISAEMSRGQDSQAFISNKV
modifications: Zea mays
As to B1, the A540 nm in assay [2] (NAG 1.6 mM) amounted to 0.07; in assay [2] (NAG 3.1 mM), 0.13; in assay [2] (NAG 6.3 mM), 0.0212; in assay [2] (NAG 12.5 mM), 0.313; in assay [2] (NAG 25 mM), 0.411; in assay [2] (NAG 50 mM) it was 0.515. The A540 nm in assay [2] (NAG 100 mM) was found to be 0.57; in assay [3] (NAGK 1 ng/mL) it was 0.001; in assay [3] (NAGK 3.9 ng/mL) it was 0.002; in assay [3] (NAGK 15.6 ng/mL), 0.039; in assay [3] (NAGK 62.5 ng/mL), 0.0159; in assay [3] (NAGK 250 ng/mL) it was 0.518. This molecule registered an A540 nm in assay [3] (NAGK 1000 ng/mL) of 0.872. In assay [3], the “lowest concentration of NAGK protein extract that generated an absorbance product at 540 nm” value is given as 1 ng/mL.
